Drawing on PMC7935541, this text covers stoichiometry N (antitoxin per toxin) and stoichiometry N for two substances.

For experiment [1], the target named is 1065 toxin (IPF_1065, RelE/ParE-like toxin), C-terminally His-tagged (Microcystis aeruginosa PCC 7806). Nature of the experiment: SEC-MALS. (Size exclusion chromatography separates by hydrodynamic size, large species first.)
The target in experiment [2] is 1067 antitoxin (IPF_1067, ParD-like antitoxin), C-terminally His-tagged (Microcystis aeruginosa PCC 7806). Nature of the experiment: […]; 20 mM HEPES pH 7.4, 150 mM NaCl, room temperature.

In experiment [1], “1067 antitoxin (IPF_1067), non-tagged, coexpressed with the 1065 toxin (natural protein)” gave a stoichiometry N (antitoxin per toxin) of 2.
For orientation: stoichiometry N means a count of units in the complex or per binding partner. For “1067 antitoxin (IPF_1067, ParD-like antitoxin), C-terminally His-tagged (natural protein)”, in experiment [2], the stoichiometry N amounted to 2.
